Experimental findings from patent publication US7387779B2, “Anti-angiogenic proteins and fragments and methods of use thereof” (Beth Israel Deaconess Medical Center, priority 1998, dated 2008) are described below.

Series [1] concerns C-PAE cells. Put plainly: Cell cycle analysis (propidium iodide, flow cytometry). In kind it is cell-based, bovine. The settings on record: for percentage of cells in G0/G1 phase: bFGF control 53.4%; for G1 (cell cycle arrest assay): Table 4. As to the method:
(§1) To further evaluate the mechanism of T3 peptide on endothelial cell proliferation, the effect of T3 peptide on cell cycle progression was analyzed. In the growth arrested and contact inhibited cells (0 hour), 4.1% of cells were in S phase. […] This was true even at a maximal dosage of 100 μg/ml. The effect of the T3 peptide was dose-dependent, however, with the percentage of cells in S phase at 21.4% at 10 μg/ml, and 20.5% at 25 μg/ml. The percentage of cells in G0/G1 phase was 88.3% at 0 hour, 53.4% for the bFGF control, and 57.6%, 57.6% and 71.0% for treatments with T1, T6 and T3 peptide, respectively. […] Apoptotic Activity: Peptides T2, T3, T4, T5 and T6 (10 μg/ml concentration) were tested for their effect of viability of C-PAE cells using the MTT assay, as described in Examples 32 and 36 above. The results are shown in FIG. 43D, which is a histogram showing cell viability as measured at OD595 (y-axis), and treatments with the synthetic peptides (x-axis). […] TNF-α (100 ng/ml) was used to serve as a positive control in inducing endothelial cell apoptosis.
The effect of Tumstatin-44-131 and Tum-5-125-C-A on the cell cycle were assayed similarly to Example 4 above. Briefly, C-PAE cells were growth arrested by contact inhibition for 48 hours. The cells, at 10^5 cells per well, were then harvested and plated into a 12-well plate coated with fibronectin in 5% FCS and either recombinant Tumstatin-44-131 or Tum-5-125-C-A. After 21 hours, the cells were harvested and fixed in 70% ice-cold ethanol. The fixed cells were rehydrated a room temperature for 30 minutes in PBS containing 2% FCS and 0.1% Tween-20, centrifuged and resuspended in 0.5 ml of the same buffer. RNase (5 μg/ml) digestion was done at 37° C. for one hour, followed by staining with propidium iodide (5 μg/ml). The cells were then counted using an EPICS XL-MCL flow cytometer (Beckman-Coulter Instruments, Fullerton, Calif., USA).

For series [2], the system named is C-PAE cells. Put plainly: MTT cell viability assay. In kind it is cell-based, bovine. The method, then: The pro-apoptotic activity of Tumstatin N-53 was examined in C-PAE cells. Cell viability was assessed by MTT (3-(4,5-dimethylthiazol-2-yl)-2-,5-diphenyl tetrasolium bromide) assay (Sugiyama, H. et al., 1998, Kidney Int. 54:1188-96). This assay is a quantitative calorimetric analysis for cell survival based on the ability of living cells to cleave the tetrasolium ring in active mitochondria. C-PAE cells (7,000 cells perwell) were plated to a 96-well plate in 10% FCS containing DMEM. The next day, either TNF-α (positive control, 80 ng/ml), or varying concentrations of Tumstatin or Tumstatin N-53 was added to the wells and incubated for 24 hours. MTT solution (5 mg/ml; CHEMICON International, Temecula, Calif., USA) was then added to the wells at a rate of 10 μl/well and incubated at 37° C. for 4 hours. Acid-isopropanol was added and mixed thoroughly. The absorbance was measured in a microplate reader (Bio-Rad, Hercules, Calif., USA) at 590 nm.
The MTT assay was used to evaluate cell viability in C-PAE endothelial cells and WM-164 melanoma cells after treatment with Tumstatin, Tum-1, Tum-2, Tum-3 and Tum-4. The results are shown in FIGS. 34A and 34B, which are a pair of graphs showing the effect of increasing concentration (x-axis) of Tumstatin, Tum-1, Tum-2, Tum-3 and Tum-4 on the cell viability (y-axis) of C-PAE cells (FIG. 34A) and WM-164 cells (FIG. 34B). Each point represents the mean ±the standard error of the mean for triplicate wells.
as §1
Cell viability was measured by MTT assay, as described above.
In general terms: Formazan colour is commonly taken as a measure of viable cells.

The subject of series [3] is C-PAE. Kind of series: Endothelial tube formation assay (Table 4). In kind it is cell-based, bovine. The method, then:
Deletion fragments of tumstatin were cloned into bacterial expression vectors, expressed, purified using nickel chromoatography, and then analyzed for in vitro anti-angiogenic, and associated, activity. Special efforts were made to ensure the removal of contaminating endotoxins from the protein preparations. Full-length Tumstatin, Tumstatin-N53 and two additional deletion mutants (Tum-2C and Tum-KE) were made and tested. The deletion mutants were tested for endothelial cell proliferation, cell cycle progression, apoptosis, and endothelial tube formation.

For series [4], the system named is HUVEC cells. Put plainly: Cell adhesion assay with integrin blocking antibodies. The format is cell-based, human. The settings on record: label = plate coating. The method, then: The attachment of HUVECs to Tumstatin-coated plates in the presence of integrin subunits α1 through α6, β1, and αvβ3 integrin blocking antibody was examined. This assay was performed according to the method of Senger et al. (Senger, D. R. et al, 1997, Proc. Natl. Acad. Sci. USA 94:13612-7), with minor modification. 96-well plates were coated with either human Tumstatin, mouse laminin-1, or human Type IV collagen (Collaborative Biomedical Prods., Bedford, Mass., USA) at a concentration of 10 μg/ml overnight at 37° C. Vitronectin (Collaborative Biomed. Prods.) at a concentration of 0.5 μg/ml was then used to coat the plates. The remaining protein binding sites were blocked with 100 mg/ml of BSA (Sigma Chemical Co., St. Louis, Mo., USA) in PBS for 2 hours. HUVEC cells were grown to subconfluence (70-80%) in EGM-2 medium, gently trypsinized and resuspended in serum-free medium (1.5×10^5 cells/ml). The cells were mixed with 10 μg/ml of either mouse IgG, (control) (Life Technologies/Gibco BRL, Gaithersberg, Md., USA) or antibody (mouse monoclonal antibody to the human β1 integrin (clone P4C10) (Life Technologies/Gibco BRL); monoclonal antibody to human integrins α1 through α.6 (CHEMICON Int'l, Temecula, Calif., USA); αvβ3 integrin (clone LM609) (CHEMICON Int'l) and incubated for 15 minutes at room temperature, with gentle agitation. One hundred microliters of the cell suspension was then added to each well and incubated for 45 minutes at 37° C. Unattached cells were removed by washing, and the number of attached cells were counted after staining with methylene blue. C-PAE cells were used in separate experiments, following the above procedure.
Cell Attachment Activity: Cell attachment using endothelial cells was performed as described above. HUVEC or C-PAE cells were incubated with monoclonal anti-human integrin antibodies, control mouse IgG (10 μg/ml), or synthetic peptide, plated onto pre-coated 96-well plates, and the number of cells attaching to the plates was determined using measurement of methylene blue staining at OD655. […] CNGRC peptide was used as a control.
The cell attachment assay was performed as described above.

For series [5], the system named is WM-164 cells. Put plainly: Attachment of melanoma cells to coated plates. In kind it is cell-based, human. The text has this: Tumstatin and all three of the deletion mutants […] attachment of WM-164 melanoma cells to the plates.

As for GLKGKRGDSGSPATWTTRGF [T1], the “percentage of cells in S phase” value in series [1] (bFGF 24 hours (control 22.1%), T1 or T6, maximal dosage of 100 μg/ml) was 22.3%. The “percentage of cells in G0/G1 phase” value in series [1] is given as 57.6%.

With LQRFTTMPFLFCNVNDVCNF [T3], the “percentage of cells in S phase” value in series [1] (bFGF 24 hours (control 22.1%), 50 μg/ml) is 13.8%; in series [1] (bFGF 24 hours, 10 μg/ml), 21.4%; in series [1] (bFGF 24 hours, 25 μg/ml), 20.5%. Also, in series [1], the “percentage of cells in G0/G1 phase” value worked out at 71.0%. In series [2], the “effect on cell viability” value was “significantly decrease cell viability”.

B1: Tumstatin-44-131: residues 44 to 131 of full-length Tumstatin (SEQ ID NO:33) (protein)
chain: FSFLFVQGNQRAHGQDLGTLGSCLQRFTTMPFLFCNVNDVCNFASRNDYSYWLSTPALMPMNMAPITGRALEPYISRCTVCEGPAIAI
modifications: Tumstatin-45-132 (amino acids 45-132 of SEQ ID NO10)
Regarding B1, the “Tube (Endothelial tube formation assay)” value in series [3] is “active”. The “percentage of cells in S phase” value in series [1] (5% FCS 21 hours (control 21.5%), dose not given) is listed as 6.0%; in series [1] (5% FCS 21 hours, 1 μg/ml), 19.3%; in series [1] (5% FCS 21 hours, 10 μg/ml) it was 11.3%. For the same molecule, the “G1 (cell cycle arrest assay)” value in series [1] is less than 5 µg. Besides, the “ED50, decrease of cell viability” value in series [2] was 12 µg/mL. The “inhibition of HUVEC attachment to coated plates by αvβ3 antibody” value in series [4] (10 μg/ml antibody) was determined as 47.1%. Besides, in series [4] (10 μg/ml antibody), the “inhibition of HUVEC attachment to coated plates by β1 antibody” value (“inhibition … by β1 antibody” for short) was found to be 47.5%.

B2: Tum-4: residues 181 to 244 of Tumstatin (SEQ ID NO:25) (protein)
chain: EFRASPFLECHGRGTCNYYSNSYSFWLASLNPERMFRKPIPSTVKAGELEKIISRCQVCMKKRH
modifications: Tum-4 (amino acids 181-244 of SEQ ID NO10)
As to B2, the “binding of WM-164 cells to coated plates” value in series [5] is reported as “bind to WM-164 cells”.

B3: Tumstatin: NC1 domain of the α3 chain of type IV collagen, residues 1-244 (SEQ ID NO:10) (protein, listed as Homo sapiens)
chain: GLKGKRGDSGSPATWTTRGFVFTRHSQTTAIPSCPEGTVPLYSGFSFLFVQGNQRAHGQDLGTLGSCLQRFTTMPFLFCNVNDVCNFASRNDYSYWLSTPALMPMNMAPITGRALEPYISRCTVCEGPAIAIAVHSQTTDIPPCPHGWISLWKGFSFIMFTSAGSEGTGQALASPGSCLEEFRASPFLECHGRGTCNYYSNSYSFWLASLNPERMFRKPIPSTVKAGELEKIISRCQVCMKKRH
B3: the “Tube (Endothelial tube formation assay)” value in series [3] was “active”. Besides, the “G1 (cell cycle arrest assay)” value in series [1] came out at 10 µg. Also, the “decrease of cell viability” value in series [2] (5 μg/ml, 24 hours) came to 22.5%. The “decrease of cell viability” value in series [2] (10 μg/ml) is recorded as 60%. In series [4], the “inhibition of HUVEC attachment by antibody to subunits α1 through α4” value is on record as “did not block”; the “inhibition of HUVEC attachment by αvβ3 antibody and β1 antibody together” value amounted to 91%. In addition, in series [4] (10 μg/ml antibody), the “inhibition of HUVEC attachment to coated plates by α5 antibody” value is listed as 20%, the “inhibition of HUVEC attachment to coated plates by α6 antibody” value was 54%, the “inhibition of HUVEC attachment to coated plates by αvβ3 antibody” value is reported as 80% and the “inhibition … by β1 antibody” value was determined as 54%. The “binding of WM-164 cells to coated plates” value in series [5] is given as “bind to WM-164 cells”.

B4: Tum-2: residues 1 to 132 of Tumstatin (SEQ ID NO:23) (protein)
chain: GLKGKRGDSGSPATWTTRGFVFTRHSQTTAIPSCPEGTVPLYSGFSFLFVQGNQRAHGQDLGTLGSCLQRFTTMPFLFCNVNDVCNFASRNDYSYWLSTPALMPMNMAPITGRALEPYISRCTVCEGPAIAI
modifications: Tum-2 (amino acids 1-132 of SEQ ID NO10)
For the molecule B4, the “binding of WM-164 cells to coated plates” value in series [5] was “bind to WM-164 cells”.

B5: Tum-1: residues 54 to 244 of Tumstatin, lacking the N-terminal 53 amino acids (SEQ ID NO:22) (protein)
chain: QRAHGQDLGTLGSCLQRFTTMPFLFCNVNDVCNFASRNDYSYWLSTPALMPMNMAPITGRALEPYISRCTVCEGPAIAIAVHSQTTDIPPCPHGWISLWKGFSFIMFTSAGSEGTGQALASPGSCLEEFRASPFLECHGRGTCNYYSNSYSFWLASLNPERMFRKPIPSTVKAGELEKIISRCQVCMKKRH
modifications: Tum-1 (Tumstatin N-53) (amino acids 54-244 of SEQ ID NO10)
Take B5: the “Tube (Endothelial tube formation assay)” value in series [3] is “active”. In addition, the “G1 (cell cycle arrest assay)” value in series [1] was 5 µg. Besides, the “effect on cell viability” value in series [2] is “decreases cell viability in a dose-dependent manner”. Moreover, the “decrease of cell viability” value in series [2] (5 μg/ml, 24 hours) was 49.4%. In series [4] (10 μg/ml antibody), the “inhibition of HUVEC attachment to coated plates by α6 antibody” value was “did not”, the “inhibition of HUVEC attachment to coated plates by αvβ3 antibody” value is listed as “inhibited this adhesion” and the “inhibition … by β1 antibody” value was “inhibited this adhesion”. Moreover, the “binding of WM-164 cells to coated plates” value in series [5] was “bind to WM-164 cells”.
